In patent US20160168251A1 (MorphoSys, published 2016):

Experiments:
[1] = biological target: T1, human NPRC on HEK293 cells, without added ligand (human, UniProt P17342 27-541); assay: FACS, HEK NPRC cells without ligand
T1 construct: whole, on cells; also called HEK NPRC cells; natriuretic peptide receptor C
T1 sequence (looked up): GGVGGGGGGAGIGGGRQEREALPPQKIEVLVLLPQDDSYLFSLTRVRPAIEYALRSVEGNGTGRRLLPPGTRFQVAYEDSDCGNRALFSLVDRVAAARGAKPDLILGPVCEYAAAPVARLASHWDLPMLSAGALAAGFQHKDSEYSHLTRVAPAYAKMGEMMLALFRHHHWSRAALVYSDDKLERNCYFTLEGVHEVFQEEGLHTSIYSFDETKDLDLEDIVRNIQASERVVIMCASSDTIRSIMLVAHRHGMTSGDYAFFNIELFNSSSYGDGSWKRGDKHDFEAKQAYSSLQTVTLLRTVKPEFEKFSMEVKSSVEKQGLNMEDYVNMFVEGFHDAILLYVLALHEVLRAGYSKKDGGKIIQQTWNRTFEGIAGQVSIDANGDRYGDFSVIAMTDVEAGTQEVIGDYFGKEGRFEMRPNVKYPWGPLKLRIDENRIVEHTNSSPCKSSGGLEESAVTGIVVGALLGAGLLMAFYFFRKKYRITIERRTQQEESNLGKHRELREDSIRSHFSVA
Protocol: (§1) HEK NPRA cells are detached with Accutase (PAA Laboratories GmbH, Cat. No. L11-007, Austria), harvested by centrifugation (900 rpm, 4 minutes) and resuspended in FACS buffer (PBS/3% FCS/0.02% NaN3) to a final concentration of 10⁶ cells/ml. 100 μl of the cell suspension is transferred to each well of a 96 round bottom plate (TC Microwell 96U, Nunc). […] Cells are washed in 150 μl of FACS buffer, pelleted and resuspended in 50 μl of the solution containing the primary antibody comprising a BEL extract of Fabs, a diluted BEL extract or purified antibody diluted in FACS buffer and incubated on ice for 30 min. Cells are washed again in FACS buffer and resuspended in 50 μl of FACS buffer containing the secondary antibody (R-Phycoerythrin-conjugated Affipure F(ab′)₂ Fragment Goat Anti-Human IgG, Dianova) and incubated on ice for 45 min. Cells are washed twice with FACS buffer and resuspended in 200 μl of FACS buffer for analysis in the FACS Array (BD Biosciences).

[2] = biological target: T2, human NPRA on HEK293 cells bound to ANP (human, UniProt P01160 124-151); assay: cell-based or functional assay
T2 sequence: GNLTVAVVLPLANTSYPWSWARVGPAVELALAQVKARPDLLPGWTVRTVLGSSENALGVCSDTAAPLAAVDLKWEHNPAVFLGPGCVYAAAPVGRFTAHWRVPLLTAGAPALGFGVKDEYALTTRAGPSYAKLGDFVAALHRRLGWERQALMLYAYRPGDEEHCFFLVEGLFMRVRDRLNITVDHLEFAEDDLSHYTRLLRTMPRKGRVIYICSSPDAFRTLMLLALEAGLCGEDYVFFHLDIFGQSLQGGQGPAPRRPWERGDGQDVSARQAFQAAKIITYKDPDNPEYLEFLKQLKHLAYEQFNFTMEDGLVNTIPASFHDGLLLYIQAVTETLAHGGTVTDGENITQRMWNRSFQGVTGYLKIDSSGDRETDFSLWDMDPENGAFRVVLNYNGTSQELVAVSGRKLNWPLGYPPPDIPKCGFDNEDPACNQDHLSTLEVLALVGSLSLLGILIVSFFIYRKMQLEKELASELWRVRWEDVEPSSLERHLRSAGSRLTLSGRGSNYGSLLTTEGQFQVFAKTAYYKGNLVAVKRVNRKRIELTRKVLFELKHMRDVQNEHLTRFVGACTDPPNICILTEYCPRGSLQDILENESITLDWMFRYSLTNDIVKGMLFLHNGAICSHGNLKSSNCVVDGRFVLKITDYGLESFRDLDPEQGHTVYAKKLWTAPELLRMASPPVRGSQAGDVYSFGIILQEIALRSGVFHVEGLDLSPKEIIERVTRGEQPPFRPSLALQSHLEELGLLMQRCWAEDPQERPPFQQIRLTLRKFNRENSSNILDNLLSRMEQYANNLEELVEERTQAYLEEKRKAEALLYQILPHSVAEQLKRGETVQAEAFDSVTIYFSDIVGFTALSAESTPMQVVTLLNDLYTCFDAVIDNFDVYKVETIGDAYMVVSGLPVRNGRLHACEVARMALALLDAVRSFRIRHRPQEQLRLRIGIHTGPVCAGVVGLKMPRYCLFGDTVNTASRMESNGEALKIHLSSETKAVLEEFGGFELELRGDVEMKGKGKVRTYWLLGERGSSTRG
T2 sequence (peptide): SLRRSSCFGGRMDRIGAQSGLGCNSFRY

[3] = biological target: T3, human NPRC on HEK293 cells in the presence of BNP (human, UniProt P17342 27-541; P16860 103-134); assay: FACS, HEK NPRC cells with 100 nM BNP
T3 construct: whole, on cells;mature; also called HEK NPRC cells + 100 nM BNP
T3 sequence (looked up): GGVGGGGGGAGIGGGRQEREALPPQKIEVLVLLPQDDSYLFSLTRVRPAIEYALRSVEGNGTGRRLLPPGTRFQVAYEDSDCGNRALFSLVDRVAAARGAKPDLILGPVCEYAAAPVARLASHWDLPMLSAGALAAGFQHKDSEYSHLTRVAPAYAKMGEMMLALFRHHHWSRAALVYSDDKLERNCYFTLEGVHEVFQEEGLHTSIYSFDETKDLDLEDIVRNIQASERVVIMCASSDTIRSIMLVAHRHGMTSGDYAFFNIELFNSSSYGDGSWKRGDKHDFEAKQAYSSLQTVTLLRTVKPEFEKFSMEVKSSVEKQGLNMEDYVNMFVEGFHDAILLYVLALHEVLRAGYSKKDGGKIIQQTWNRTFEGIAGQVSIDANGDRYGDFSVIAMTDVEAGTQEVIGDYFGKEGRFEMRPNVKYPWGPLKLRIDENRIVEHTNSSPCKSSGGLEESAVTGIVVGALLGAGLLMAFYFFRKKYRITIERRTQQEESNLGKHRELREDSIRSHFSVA
T3 sequence (peptide, looked up): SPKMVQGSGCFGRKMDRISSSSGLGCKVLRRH
Protocol: as §1

[4] = biological target: T4, human NPRC on HEK293 cells in the presence of ANP (human, UniProt P17342 27-541; P01160 124-151); assay: FACS, HEK NPRC cells with 100 nM ANP
T4 construct: whole, on cells;mature; also called HEK NPRC cells + 100 nM ANP
T4 sequence (looked up): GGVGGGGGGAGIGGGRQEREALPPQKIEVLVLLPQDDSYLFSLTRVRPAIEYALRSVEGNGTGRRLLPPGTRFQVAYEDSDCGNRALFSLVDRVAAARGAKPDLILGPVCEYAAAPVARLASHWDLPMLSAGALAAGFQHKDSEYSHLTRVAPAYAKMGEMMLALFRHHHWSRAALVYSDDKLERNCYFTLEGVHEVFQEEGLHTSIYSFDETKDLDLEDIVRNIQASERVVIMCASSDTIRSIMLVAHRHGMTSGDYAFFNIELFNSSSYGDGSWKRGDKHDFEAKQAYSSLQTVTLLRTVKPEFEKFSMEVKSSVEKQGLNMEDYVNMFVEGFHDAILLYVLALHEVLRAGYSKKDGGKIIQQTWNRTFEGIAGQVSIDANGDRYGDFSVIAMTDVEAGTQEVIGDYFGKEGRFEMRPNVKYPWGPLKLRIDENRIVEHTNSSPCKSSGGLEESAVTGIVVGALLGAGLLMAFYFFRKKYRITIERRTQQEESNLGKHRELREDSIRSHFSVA
T4 sequence (peptide, looked up): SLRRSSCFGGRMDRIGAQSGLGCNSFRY
Protocol: as §1

[5] = biological target: T2, human NPRA on HEK293 cells bound to ANP; assay: FACS, HEK NPRA cells loaded with 100 nM ANP
[6] = biological target: T2, human NPRA on HEK293 cells bound to ANP; assay: FACS, IgG4_Pro on HEK NPRA cells in the presence of 100 nM ANP
Protocol: as §1

B1: 5064 IgG4_Pro (antibody, V domains shown)
VH: QVQLQQSGPGLVKPSQTLSLTCAISGDSVSSRSASWSWIRQSPGRGLEWLGRIYYRSKWYNDYAVSVKSRITINPDTSKNQFSLQLNSVTPEDTAVYYCARMDVPSFRYFDVWGQGTLVTVSS
VL: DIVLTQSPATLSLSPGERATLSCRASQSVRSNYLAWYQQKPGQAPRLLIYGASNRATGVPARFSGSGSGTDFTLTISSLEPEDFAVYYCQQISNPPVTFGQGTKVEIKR
B1 was tested, and the binding result [1] was “no binding (tested: 20 nM)”, the “cGMP EC50 (nM), titration of the antibody on HEK NPRA cells with 200 pM ANP” value [2] was 12.1 nM and the binding result [3] was “no binding (tested: 20 nM)”. For the same binder, the binding result [4] was “no binding (tested: 20 nM)”, the EC50 [5] was 1.6 nM and the EC50 [6] was 1.08 nM.
